Key:
denatured form of HER3 = denatured form of HER3 (Homo sapiens, UniProt P21860); experiment: Western blot detection of HER3 in T47D cell lysate (mAb as primary Ab); assay type: binding
Experimental: FIGS. 1A-E show hybridoma Screening and mAb Isotyping. (FIG. 1A) Mice were immunized with recombinant IgB3. (FIG. 1B) The hybridoma supernatant screening using ELISA, was performed on 96 well-plate coated with IgB3 (1 μg/ml) or with a human IgG. The plates were blocked with PBS-1% BSA and incubated for 1 h with hybridoma supernatants, followed by a second incubation for 1 h with HRP-labeled anti-mouse IgG and subsequently detected by 2,2′-azino-bis (3-ethylbenzothiazoline-6-sulfonic acid) addition. The OD at 415 nm was then measured using an ELISA microplate reader. (FIG. 1C) The second step of the screening was performed by immunoprecipitation (IP). Anti-mouse IgG beads were incubated first with the hybridoma supernatant and subsequently with total cell lysate from HER3-expressing T47D cells. (FIG. 1D) The mAbs directed to HER3 were isotyped using ELISA. […] (FIG. 1E) Finally the ability of the mAbs to detect HER3, used as primary Ab in a Western Blot experiment, was determined on cell lysate from T47D cells.
Cells were grown under specified conditions or treated as indicated. […] Antibody binding to membrane blots was detected using horseradish peroxidase-secondary antibodies (Jackson ImmunoResearch Laboratories), followed by treatment with ECL Western blotting detection reagents (GE Healthcare). […]

BXPC3-luc cells = experiment: Antibody-dependent cellular cytotoxicity (ADCC) luciferase assay with human PBMC; assay type: cell-based; conditions: 24 h
Experimental: (FIGS. 5A and 5B) The mAb ability to degrade HER3 after cell treatment was determined as follows. N87 cells were treated for 3 h at 37° C. with 10 μg/ml mAb. After cell lysis and protein extraction, the samples were subjected to immunoblotting with the indicated Ab. (FIG. 5C) The experiment shown in FIG. 5A was performed on 6 other cancer cell lines. (FIG. 5D) The mAb capacity to induce ADCC is reported. BXPC3-luc cells were incubated with the indicated mAbs and secondarily with human PBMC cells for 24 h. Cell killing was detected by measuring the luminescence after final addition of luciferine. *** […], ANOVA and post hoc tests.
ADCC was evaluated with a luciferase-activity assay. Using 96-well white plates, BXPC3-luc (4,000 cells/well) were pre-incubated for 30 min with the indicated antibodies. Ficoll-purified human peripheral blood mononuclear cells (PBMCs) from buffy coat were then added at a 10:1 effector to target cell ratio (E:T). […] Bioluminescence was determined using the Wallac Trilux 1450 Microbeta liquid scintillation and luminescence counter (Perkin-Elmer, MA). Percentage of cellular cytotoxicity was calculated using the following formula: percentage of specific lysis=[bioluminescence in experimental point−basal bioluminescence]/[bioluminescence in total lysis−basal bioluminescence]×100. […]

Chain of denatured form of HER3 (P21860 20-1342): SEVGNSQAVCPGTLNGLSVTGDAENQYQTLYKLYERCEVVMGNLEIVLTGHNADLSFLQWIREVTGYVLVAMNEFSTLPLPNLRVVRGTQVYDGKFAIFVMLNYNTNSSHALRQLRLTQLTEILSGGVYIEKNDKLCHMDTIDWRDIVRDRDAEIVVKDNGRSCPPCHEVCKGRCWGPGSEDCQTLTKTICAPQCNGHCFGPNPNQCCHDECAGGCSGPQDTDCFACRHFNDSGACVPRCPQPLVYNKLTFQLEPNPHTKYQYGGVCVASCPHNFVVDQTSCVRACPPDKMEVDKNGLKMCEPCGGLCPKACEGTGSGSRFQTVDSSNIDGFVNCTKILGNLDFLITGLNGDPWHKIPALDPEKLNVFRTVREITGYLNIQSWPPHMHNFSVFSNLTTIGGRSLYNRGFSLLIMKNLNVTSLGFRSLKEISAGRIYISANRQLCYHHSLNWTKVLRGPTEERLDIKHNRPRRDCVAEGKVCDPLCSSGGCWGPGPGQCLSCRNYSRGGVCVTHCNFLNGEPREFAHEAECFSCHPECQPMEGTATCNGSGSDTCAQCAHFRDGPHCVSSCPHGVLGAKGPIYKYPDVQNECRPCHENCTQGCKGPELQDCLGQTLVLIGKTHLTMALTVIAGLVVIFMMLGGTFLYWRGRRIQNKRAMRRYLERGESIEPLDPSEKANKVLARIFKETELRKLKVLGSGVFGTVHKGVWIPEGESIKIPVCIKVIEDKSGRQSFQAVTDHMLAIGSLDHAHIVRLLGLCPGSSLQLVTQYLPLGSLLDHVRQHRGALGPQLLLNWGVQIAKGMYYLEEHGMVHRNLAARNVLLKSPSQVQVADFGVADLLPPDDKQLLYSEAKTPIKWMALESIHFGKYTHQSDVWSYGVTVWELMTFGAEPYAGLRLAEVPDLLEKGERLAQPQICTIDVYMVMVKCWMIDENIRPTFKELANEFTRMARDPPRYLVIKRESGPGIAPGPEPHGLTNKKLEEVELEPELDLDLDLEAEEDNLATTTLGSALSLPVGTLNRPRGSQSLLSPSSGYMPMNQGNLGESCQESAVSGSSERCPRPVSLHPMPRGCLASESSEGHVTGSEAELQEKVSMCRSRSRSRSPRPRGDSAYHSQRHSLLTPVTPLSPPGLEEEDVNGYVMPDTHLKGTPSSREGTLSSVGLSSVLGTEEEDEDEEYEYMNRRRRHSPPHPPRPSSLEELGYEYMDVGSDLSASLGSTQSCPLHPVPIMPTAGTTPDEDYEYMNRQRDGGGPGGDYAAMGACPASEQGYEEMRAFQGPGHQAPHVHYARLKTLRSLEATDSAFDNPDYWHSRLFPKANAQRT

B1: NG83: anti-HER3 mAb; light chain CDRs SEQ ID NOs: 7-9, heavy chain CDRs 10-12 (antibody, V domains shown)
VH: QIQLVQSGPELKKRGETVKISCKASGYTFTNYGMNWVRQAPGKGLKCMGWINTYAGEPTYADDFKGRFAFSLDSSASTAYLQINNLKNEDMATYFCARGGITGAMDYWGQGTSVTVSS
VL: DVVMTQKTSSLSTSLGDRVTISCRASQDIRNYLNWYQQKPDGTVKLLIYYTSRLHSGVPSRFSGSGSGTDYSLTISDLEQEDIATYFCQQGNTLPWTFGGGTKLAIK
modifications: VH chain of NG83 polypeptide; VL chain of NG83 polypeptide
**Q.** For B1, which “recognition of HER3 in western blotting” value (denatured form of HER3) is on record?
**A.** able to recognize the denatured form of HER3

**Q.** And the “induction of ADCC” value (BXPC3-luc cells)?
**A.** strongly or moderately induced ADCC

Reference: patent US10526416B2, “Anti-HER3 antibodies and uses of same” (Yeda Research and Development Co. Ltd., priority 2014, dated 2020)
